What was measured:
[1] = biological target: NTS1-7o, MBP and TrxA-H10 fusion (rat) (UniProt P20789); experiment: radioligand binding; saturation binding of 1 pM to 10 nM [^3H]-NT to intact E. coli cells expressing the receptor; TEBB buffer, no detergents, 2 hours on ice, GF/B filters; apparent KD, one-site with ligand depletion
[2] = biological target: NTS1-7l, MBP and TrxA-H10 fusion (rat) (UniProt P20789); experiment: as above
[3] = biological target: SR142948; experiment: competition binding assay against [3H]-NT on intact E. coli cells; conditions: 5 nM agonist [3H]-NT
[4] = biological target: [^3H]-neurotensin; experiment: saturation binding assay on intact E. coli cells

Sequence of wild-type NTS1 (N-terminally truncated rat neurotensin type I receptor starting at Thr43), MBP and TrxA-H10 fusion (from UniProt P20789) A86L; I260A; F342A; F358A (P20789 whole entry A86L/I260A/F342A/F358A, looked up, the tested form may be a part): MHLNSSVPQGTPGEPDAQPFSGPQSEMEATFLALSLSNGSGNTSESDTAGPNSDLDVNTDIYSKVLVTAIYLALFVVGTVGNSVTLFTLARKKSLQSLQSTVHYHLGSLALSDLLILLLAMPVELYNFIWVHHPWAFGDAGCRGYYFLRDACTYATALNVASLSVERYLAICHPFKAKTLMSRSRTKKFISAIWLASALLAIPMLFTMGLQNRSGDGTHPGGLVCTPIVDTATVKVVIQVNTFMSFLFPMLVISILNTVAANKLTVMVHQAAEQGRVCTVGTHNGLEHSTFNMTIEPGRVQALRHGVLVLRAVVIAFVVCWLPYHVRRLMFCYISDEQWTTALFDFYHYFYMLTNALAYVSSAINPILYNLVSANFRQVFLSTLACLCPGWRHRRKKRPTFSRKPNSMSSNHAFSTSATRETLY
Sequence of NTS1-7l, MBP and TrxA-H10 fusion (rat) (P20789 43-424): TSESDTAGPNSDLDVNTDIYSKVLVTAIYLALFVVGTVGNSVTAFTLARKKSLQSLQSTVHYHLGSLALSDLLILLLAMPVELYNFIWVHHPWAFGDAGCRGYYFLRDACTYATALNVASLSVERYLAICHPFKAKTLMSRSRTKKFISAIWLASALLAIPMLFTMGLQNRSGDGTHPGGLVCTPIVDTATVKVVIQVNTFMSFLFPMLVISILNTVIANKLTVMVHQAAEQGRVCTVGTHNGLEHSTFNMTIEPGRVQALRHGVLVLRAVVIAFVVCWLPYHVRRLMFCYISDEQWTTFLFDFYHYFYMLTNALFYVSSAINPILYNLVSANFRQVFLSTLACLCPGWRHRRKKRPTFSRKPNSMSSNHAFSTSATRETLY
Sequence of NTS1-7o, MBP and TrxA-H10 fusion (rat) (P20789 43-424): as above
Sequence of wild-type NTS1 (N-terminally truncated rat neurotensin type I receptor starting at Thr43), MBP and TrxA-H10 fusion (from UniProt P20789) NTS1-7e (P20789 whole entry, looked up, change not shown, the tested form may be a part): as the sequence (P20789 whole entry A86L/I260A/F342A/F358A, looked up, the tested form may be a part) above, with L86A, A260I, A342F, A358F counted along it
Sequence of wild-type NTS1 (N-terminally truncated rat neurotensin type I receptor starting at Thr43), MBP and TrxA-H10 fusion (from UniProt P20789) NTS1-7f (P20789 whole entry, looked up, change not shown, the tested form may be a part): as the sequence (P20789 whole entry A86L/I260A/F342A/F358A, looked up, the tested form may be a part) above, with L86A, A260I, A342F, A358F counted along it
Sequence of wild-type NTS1 (N-terminally truncated rat neurotensin type I receptor starting at Thr43), MBP and TrxA-H10 fusion (from UniProt P20789) NTS1-7o (P20789 whole entry, looked up, change not shown, the tested form may be a part): as the sequence (P20789 whole entry A86L/I260A/F342A/F358A, looked up, the tested form may be a part) above, with L86A, A260I, A342F, A358F counted along it
Sequence of wild-type NTS1 (N-terminally truncated rat neurotensin type I receptor starting at Thr43), MBP and TrxA-H10 fusion (from UniProt P20789) NTS1-7l (P20789 whole entry, looked up, change not shown, the tested form may be a part): as the sequence (P20789 whole entry A86L/I260A/F342A/F358A, looked up, the tested form may be a part) above, with L86A, A260I, A342F, A358F counted along it
Sequence of wild-type NTS1 (N-terminally truncated rat neurotensin type I receptor starting at Thr43), MBP and TrxA-H10 fusion (from UniProt P20789) NTS1-7g (P20789 whole entry, looked up, change not shown, the tested form may be a part): as the sequence (P20789 whole entry A86L/I260A/F342A/F358A, looked up, the tested form may be a part) above, with L86A, A260I, A342F, A358F counted along it
Sequence of wild-type NTS1 (N-terminally truncated rat neurotensin type I receptor starting at Thr43), MBP and TrxA-H10 fusion (from UniProt P20789) A86L; F358A (P20789 whole entry A86L/F358A, looked up, the tested form may be a part): as the sequence (P20789 whole entry A86L/I260A/F342A/F358A, looked up, the tested form may be a part) above, with A260I, A342F counted along it

| Kd [1] | Kd [2] | Ki [3] | Kd [4] | Substance |
| --- | --- | --- | --- | --- |
| 30 pM | 220 pM |  |  | [^3H]-neurotensin (peptide) |
|  |  | 580 pM |  | wild-type NTS1 (N-terminally truncated rat neurotensin type I receptor starting at Thr43), MBP and TrxA-H10 fusion (from UniProt P20789) A86L; F358A |
|  |  | 1200 pM |  | wild-type NTS1 (N-terminally truncated rat neurotensin type I receptor starting at Thr43), MBP and TrxA-H10 fusion (from UniProt P20789) A86L; I260A; F342A; F358A |
|  |  | 910 pM | 140 pM | wild-type NTS1 (N-terminally truncated rat neurotensin type I receptor starting at Thr43), MBP and TrxA-H10 fusion (from UniProt P20789) NTS1-7e |
|  |  | 730 pM | 40 pM | wild-type NTS1 (N-terminally truncated rat neurotensin type I receptor starting at Thr43), MBP and TrxA-H10 fusion (from UniProt P20789) NTS1-7f |
|  |  | 2800 pM | 210 pM | wild-type NTS1 (N-terminally truncated rat neurotensin type I receptor starting at Thr43), MBP and TrxA-H10 fusion (from UniProt P20789) NTS1-7g |
|  |  | 320 pM |  | wild-type NTS1 (N-terminally truncated rat neurotensin type I receptor starting at Thr43), MBP and TrxA-H10 fusion (from UniProt P20789) NTS1-7l |
|  |  | 220 pM |  | wild-type NTS1 (N-terminally truncated rat neurotensin type I receptor starting at Thr43), MBP and TrxA-H10 fusion (from UniProt P20789) NTS1-7o |

From article PMC2696590
